The supplement of paper PMC10567573

B1: SNAP91 (parent)
chain: FAQPMMRPPFGAAAVPGTQLSPSP
B2: TNXB (parent)
chain: LLQRELMVPGTRHSAVLRDLRSGT

Variants of: B1
Assay: protein stability index of a GFP-peptide fusion (GPS, HEK-293T) (PSI 1-6); higher = more stable
Conditions: c terminus: a fixed tail appended
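Also: lentivirally expressed fusions sorted by FACS into six bins by GFP to DsRed ratio, PSI derived from sequencing read proportions per bin multiplied by bin number.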

Point of comparison: T18K, protein stability index 2.75. Against it:
- P22I — the same, 2.75
- P22A — higher, 3.28
- P22R — higher, 3.32
- P22F — higher, 2.82
- P22Y — higher, 3.49
- P22D — higher, 2.97
- P22S — higher, 2.96
- P22C — lower, 2.67
- P22H — higher, 3.14
- P22Q — higher, 3.57
- P22K — higher, 3
- P22E — lower, 2.71
- P22L — higher, 3.22
- P22M — higher, 2.86
- P22T — higher, 3.3
- P22N — higher, 3.58
- P22V — higher, 3.08
- P22W — lower, 2.65
- P22G — higher, 3.56
- G17D — higher, 3.04
- G17L — higher, 3.46
- G17M — higher, 2.84
- G17C — lower, 2.71
- G17Y — lower, 2.74
- G17V — higher, 2.85
- G17E — lower, 2.71
- G17F — lower, 2.69
- G17S — higher, 2.81
- G17H — higher, 3.22
- G17N — higher, 3.44
- G17W — lower, 2.49
- G17T — higher, 3.24
- G17A — higher, 3.11
- G17R — higher, 3.89
- G17I — higher, 2.88
- G17Q — higher, 3.48
- G17K — higher, 3.17
- P16N — higher, 3.2
- P16E — lower, 2.38
- P16V — higher, 3.33
- P16G — higher, 2.81
- P16W — lower, 1.78
- P16S — higher, 3.02
- P16C — higher, 2.77
- P16Y — lower, 2.15
- P16A — higher, 3.29
- P16K — higher, 3.25
- P16D — higher, 2.99
- P16R — higher, 3.36
- P16H — lower, 2.71
- P16Q — higher, 3.19
- P16M — lower, 2.69
- P16I — lower, 2.22
- P16T — higher, 3.37
- P16L — lower, 2.74
- P16F — lower, 2.53
- V15T — higher, 3.5
- V15Q — higher, 3.42
- V15E — higher, 2.98
- V15H — higher, 3.28
- V15I — higher, 2.82
- V15S — higher, 3.28
- V15W — lower, 2.52
- V15N — higher, 3.27
- V15G — higher, 2.96
- V15C — higher, 3.21
- V15L — higher, 3.08
- V15F — higher, 2.78
- V15A — higher, 3.54
- V15D — lower, 2.73
- V15K — higher, 2.92
- V15R — higher, 3.31
- V15M — higher, 3.01
- V15Y — higher, 2.83
- L20W — lower, 2.73
- L20A — higher, 3.28
- L20Q — higher, 4.04
- L20M — higher, 2.92
- L20R — higher, 3.51
- L20G — higher, 3.6
- L20H — higher, 3.43
- L20T — higher, 3.56
- L20D — higher, 2.98
- L20V — higher, 2.85
- L20K — higher, 3.29
- L20Y — higher, 3.08
- L20I — higher, 3.02
- L20S — higher, 3.33
- L20E — higher, 2.94
- L20P — higher, 3.2
- L20F — lower, 2.71
- L20N — higher, 3.26
- L20C — higher, 3.7
- T18D — lower, 2.6
- T18V — higher, 2.76
- T18L — higher, 2.95
- T18Y — lower, 2.58
- T18P — higher, 3.14
- T18I — higher, 2.84
- T18E — lower, 2.6
- T18N — higher, 2.87
- T18H — higher, 2.82
- T18Q — higher, 3.15
- T18W — lower, 2.29
- T18C — higher, 2.92
- T18A — higher, 3.1
- T18F — higher, 2.89
- T18M — higher, 2.95
- T18G — lower, 2.72
- T18S — higher, 3.02
- T18R — higher, 3.41
- P24A — higher, 3.11
- P24G — higher, 3.22
- P24L — lower, 2.35
- P24V — lower, 2.51
- P24S — higher, 3.1
- P24Y — higher, 2.86
- P24D — higher, 3.4
- P24F — lower, 2.65
- P24E — higher, 3.45
- P24H — higher, 2.96
- P24N — lower, 2.58
- P24T — higher, 3.25
- P24R — higher, 2.87
- P24K — higher, 3.83
- P24M — higher, 3.23
- P24Q — higher, 3.32
- P24W — higher, 2.77
- P24C — higher, 2.93
- P24I — higher, 3.2
- A14S — higher, 2.87
- A14V — lower, 2.61
- A14W — lower, 1.81
- A14Y — higher, 3.04
- A14T — lower, 2.45
- S21L — higher, 2.76
- S21F — higher, 3.01
- S21I — higher, 3.48
- S21V — higher, 3.44
- S21R — higher, 3.12
- S21P — higher, 3.11
- S21D — lower, 2.63
- S21Q — higher, 3.29
- S21T — higher, 3.06
- S21H — higher, 3.16
- S21N — higher, 3.03
- S21G — higher, 3.28
- S21A — higher, 3.49
- S21Y — higher, 3
- S21M — higher, 2.85
- S21W — higher, 2.89
- S21K — higher, 2.95
- S21E — higher, 2.98
- S21C — higher, 2.86
- Q19M — higher, 2.89
- Q19K — lower, 2.41
- Q19T — higher, 2.87
- Q19C — lower, 2.57
- Q19V — higher, 2.96
- Q19I — higher, 2.87
- Q19L — lower, 2.5
- Q19R — higher, 3
- Q19S — higher, 2.84
- Q19D — higher, 3.22
- Q19G — higher, 2.96
- Q19A — higher, 2.98
- Q19H — higher, 3.08
- Q19F — lower, 2.64
- Q19W — lower, 2.4
- Q19N — higher, 3.17
- Q19E — lower, 2.72
- Q19Y — lower, 2.69
- S23D — higher, 3.54
- S23H — higher, 2.96
- S23I — lower, 2.73
- S23C — higher, 3.25
- S23V — higher, 3.19
- S23Q — higher, 3
- S23K — higher, 3.21
- S23Y — lower, 2.52
- S23N — higher, 3.29
- S23G — higher, 3.05
- S23T — higher, 3.27
- S23L — lower, 2.1
- S23A — higher, 3.4
- S23W — lower, 2.03
- S23M — lower, 2.36
- S23E — higher, 3.32
- S23R — higher, 4.14
- S23F — the same, 2.75

Variants of: B2
Assay: as above
Conditions: c terminus: a fixed tail appended

Point of comparison: L1S, protein stability index 3.2. Against it:
- L6R — lower, 2.59
- L6K — lower, 2.79
- L6W — lower, 2.52
- L6P — lower, 3.15
- L6N — lower, 2.9
- L6S — lower, 3.1
- L6G — lower, 2.8
- L6M — lower, 2.49
- L6I — lower, 2.19
- L6C — lower, 2.59
- L6T — higher, 3.53
- L6Q — lower, 2.69
- L6F — lower, 2.74
- L6V — lower, 2.89
- L6H — lower, 3.18
- L6A — lower, 2.43
- L6Y — lower, 2.63
- L6D — higher, 3.37
- L6E — lower, 2.7
- R4G — lower, 2.43
- R4F — lower, 1.72
- R4K — lower, 2.46
- R4I — lower, 2.3
- R4T — lower, 2.23
- R4H — lower, 2.73
- R4V — lower, 1.81
- R4D — higher, 3.44
- R4P — lower, 2.77
- R4L — lower, 2.76
- R4S — lower, 2.42
- R4C — lower, 2.49
- R4M — lower, 2.37
- R4Q — lower, 2.46
- R4Y — lower, 2.37
- R4W — lower, 1.49
- R4E — lower, 2.65
- R4N — lower, 2.86
- R4A — lower, 2.19
- L1K — lower, 2.87
- L1C — lower, 2.38
- L1P — lower, 2.53
- L1T — lower, 3.02
- L1E — lower, 3.08
- L1D — lower, 2.71
- L1G — lower, 2.89
- L1V — lower, 2.47
- L1R — lower, 3.04
- L1M — lower, 2.73
- L1H — lower, 2.98
- L1N — higher, 3.54
- L1A — lower, 2.85
- L1Y — lower, 2.3
- L1I — lower, 2.47
- L1Q — higher, 3.22
- L1F — lower, 2.41
- L1W — lower, 1.61
- V8F — lower, 2.28
- V8L — lower, 2.35
- V8G — lower, 2.27
- V8C — lower, 2.12
- V8H — lower, 2.36
- V8D — lower, 2.91
- V8E — lower, 2.62
- V8I — lower, 1.99
- V8K — lower, 2.46
- V8M — lower, 2.15
- V8A — lower, 2.42
- M7C — lower, 2.54
- M7D — lower, 3.17
- M7P — lower, 3.11
- M7A — lower, 2.97
- M7L — lower, 2.39
- M7R — lower, 2.16
- M7E — higher, 3.61
- M7V — lower, 2.67
- M7H — lower, 2.35
- M7W — lower, 2.05
- M7N — lower, 2.57
- M7Y — lower, 3.15
- M7Q — lower, 2.23
- M7T — lower, 2.72
- M7K — lower, 2.52
- M7I — lower, 2.44
- M7G — lower, 3.15
- M7S — higher, 3.42
- M7F — lower, 2.02
- L2R — higher, 3.92
- L2C — lower, 2.13
- L2K — higher, 3.33
- L2Q — higher, 3.54
- L2H — higher, 3.43
- L2F — lower, 2.15
- L2M — lower, 2.28
- L2G — higher, 3.42
- L2N — higher, 3.34
- L2W — lower, 2.12
- L2I — lower, 2.79
- L2Y — lower, 2.71
- L2P — higher, 3.71
- L2T — higher, 3.29
- L2D — higher, 3.23
- L2V — lower, 2.48
- L2A — higher, 3.36
- L2E — higher, 3.95
- L2S — higher, 3.4
- E5Q — lower, 2.6
- E5F — lower, 1.18
- E5Y — lower, 2.38
- E5R — lower, 1.98
- E5T — lower, 1.77
- E5N — lower, 2.85
- E5S — lower, 2.29
- E5H — lower, 1.87
- E5V — lower, 2.11
- E5K — lower, 2.6
- E5P — lower, 2.44
- E5A — lower, 1.81
- E5I — lower, 2.06
- E5M — lower, 1.64
- E5C — lower, 1.67
- E5W — lower, 2.84
- E5D — lower, 2.81
- E5G — lower, 2.03
- Q3L — lower, 1.73
- Q3P — lower, 2.88
- Q3T — lower, 2.17
- Q3D — higher, 3.4
- Q3H — lower, 2.49
- Q3C — lower, 1.93
- Q3F — lower, 2.59
- Q3A — lower, 2.27
- Q3N — lower, 2.38
- Q3M — lower, 2.16
- Q3K — lower, 2.7
- Q3S — lower, 2.61
- Q3Y — lower, 1.72
- Q3R — lower, 2.49
- Q3V — lower, 1.58
- Q3I — lower, 1.72
- Q3E — higher, 3.52
- Q3G — lower, 2.74
- Q3W — lower, 2.15
